In patent US9587002B2, “Sequence of nucleotides and peptides GSE 24.2 of dyskerin, which can induce telomerase activity, method for obtaining same, therapeutic compositions and applications thereof” (CONSEJO SUPERIOR DE INVESTIGACIONES CIENTIFICAS, priority 2005, dated 2017):
“Also recorded” adds a separate entry of the source.

What was measured:
c-MYC promoter = experiment: c-MYC-luc reporter (px3.2) luciferase assay in 293T cells; assay type: cell-based, human
Method: FIG. 12.—The promoter activity of c-MYC is induced by the GSE 24.2 peptide. A) Schematic representation of the c-MYC promoter, indicating the different constructs used in the experiments. B) 293T cells were co-transfected with the specified plasmids (10 μg/DNA per million cells) and with the px3.2 c-MYC-luc reporter (1 μg per million cells). C) The specified cell lines were transfected with the px3.2 c-MYC-luc reporter (1 μg per million cells). D) The specified cell lines were transfected with the different constructs of the c-MYC-luc reporter (1 μg per million cells). After 24 hours of transfection, the luciferase activity was analysed as specified above. CMV-Renilla (0.1 μg/ml per million cells) was used as a control for the transfection efficiency. The data represent the mean of two experiments performed in quadruplicate.
FIG. 13.—The activity of the c-MYC promoter induced by the GSE 24.2 peptide is dependent on the NHE III element. A) Schematic representation of the mutations generated in the NHE III element, px3.2 (SEQ ID NO: 21), px3.2 G12A (SEQ ID NO: 22), px3.2 G17A (SEQ ID NO: 23), and px3.2 G26T/G27T (SEQ ID NO: 24). B) The 293T cells were co-transfected with different constructs (10 μg/DNA per million cells) and with the different mutants of the px3.2 reporter plasmid (1 μg per million cells). C) The cell lines specified in the figure were transfected with the different mutants of the px3.2 reporter (1 μg per million cells). After 24 h of transfection, the luciferase activity was analysed as specified above. CMV-Renilla (0.1 μg/ml per million cells) was used as a control for the transfection efficiency. The data represent the mean of two experiments performed in quadruplicate.
The transcription of the c-myc gene is controlled by two different promoters and it seems to be repressed by a domain hypersensitive to DNase located between the P0 and P1 promoters (NHEIII). Thus, four different constructs were used that contained 3.2 kb of the transcription initiation point of c-myc bound to the luciferase gene (FIG. 12a).
This transcription factor, c-myc, should therefore activate the transcription of hTERT. Thus, three mutants deleted in the c-myc promoter were used to define the necessary region for the GSE 24.2 peptide to perform its inducing activity.
Since the NHEIII region has been described as an inhibitor of the transcription of c-myc, several mutants of the NHEIII region were constructed by Guanine modification of the purine-rich region. The 27 Guanines present in the NHEIII region are involved in maintaining the secondary structure of the G-quadruplexes of the purine-rich region (Pu27). The following were mutated: G12A, located on the second guanine of the second quartet; G17A, on the second triplet of Guanines; and, finally, two consecutive Guanines (G26A/G27A) at the end of the purine-rich region (FIG. 13a). These promoter construct were transfected in cells that express, either the empty vector, or the vectors containing the DKC protein or the GSE 24.2 peptide.
Directed mutagenesis. The specific mutations of guanine in the NHEIII region of the c-myc gene promoter, px3.2, were performed using the Quickchange X-L directed mutagenesis kit (Strategene) in accordance with the manufacturer's instructions.

telomerase = experiment: Telomerase activity (TRAP) in cells of patients with dyskeratosis congenita; assay type: cell-based, human; conditions: DC-1, DC-2, DC-3 and carrier parent (DC-C) cells; 24 hours after transfection vs empty vector
Method: FIG. 10.—Telomerase activity and expression levels of hTERT and hTR in the cells of patients with dyskeratosis congenita and in VA13 cells transiently transfected with the 24.2 plasmid or the pLNCX empty vector. A) Telomerase activity measured by means of the TRAP assay in the cells of patients with dyskeratosis congenita (DC-1, DC-2 and DC-3) and in the carrier parent (DC-C) following electroporation of 45 μg of the pLNCX empty plasmid (−) or the pLNCX 24.2 vector (+) by 15 million cells. B) RT-PCR of the RNA from cells of one of the patients with dyskeratosis congenita, DC3 transfected with the empty vector and DC3 transfected with the 24.2 plasmid, using oligos specific for hTERT and hTR. As a starting RNA control, oligos for the amplification of GAPDH were used. C) Telomerase activity in VA13 cells. […] 24 hours later, the telomerase activity was analysed as described above, using dilutions of the protein extracts from each transfection. […] RNA levels were detected as described above. […] After 24 h of transfection, the luciferase activity was analyzed as described above. […]
Telomerase activity assay based on the TRAP method Wright et al., 1995). The telomerase activity was measured using the TRAPeze telomerase detection kit (Intergen) in accordance with the instruction manual. […]

B1: GSE 24.2: 165-pb cDNA fragment (nucleotides 268 to 433) of human dyskerin, SEQ ID NO1, encoding peptide SEQ ID NO2, expressed from pLNCX plasmid (nucleic acid, listed as Homo sapiens)
DNA: GGTTTCATTAATCTTGACAAGCCCTCTAACCCCTCTTCCCATGAGGTGGTAGCCTGGATTCGACGGATACTTCGGGTGGAGAAGACAGGGCACAGTGGTACTCTGGATCCCAAGGTGACTGGTTGTTTAATCGTGTGCATAGAACGAGCCACTCGCTTGGTGAAG
modifications: expressed from pLNCX plasmid; CDS (1)..(165) Sequence GSE 24.2
c-myc promoter (px3.2myc) activity, transient co-transfection (c-MYC promoter; 293T cells, GSE 24.2 plasmid vs pLNCX jointly with px3.2myc reporter): A similar result was obtained
transcription from deletion mutants of the c-myc promoter (c-MYC promoter; GSE 24.2 cells vs control cells, three deleted mutants): only those contained in the distal region of promoters P1 and P0, which include the NHEIII domain, were capable of maintaining the transcription
activation of WT px3.2 myc promoter (c-MYC promoter; cells expressing empty vector, DKC or GSE 24.2): only the WT px3,2 myc promoter was capable of being activated
activation of Pu27 (NHEIII) mutant c-myc promoters (c-MYC promoter; mutants G12A, G17A, G26A/G27A): at very low levels
c-myc promoter (px3.2myc) activity, GSE 24.2 cells vs control cells (c-MYC promoter; stable cell lines transfected with px3.2myc): three-fold increase in activity
telomerase activity in dyskeratosis congenita cells (telomerase): an increase in telomerase activity was observed; also recorded: compensates for the defects in telomerase activity
